Results taken from US20180273595A1.

How the values were obtained:
[1] = target: recombinant His-tagged full-length ERG (UniProt P11308); assay: Kd table of synthetic peptides on ERG; assay not given
[2] = target: recombinant His-tagged full-length ERG (UniProt P11308); assay: OctetRED; Kd table of synthetic peptides on ERG

recombinant His-tagged full-length ERG, sequence (P11308 whole entry): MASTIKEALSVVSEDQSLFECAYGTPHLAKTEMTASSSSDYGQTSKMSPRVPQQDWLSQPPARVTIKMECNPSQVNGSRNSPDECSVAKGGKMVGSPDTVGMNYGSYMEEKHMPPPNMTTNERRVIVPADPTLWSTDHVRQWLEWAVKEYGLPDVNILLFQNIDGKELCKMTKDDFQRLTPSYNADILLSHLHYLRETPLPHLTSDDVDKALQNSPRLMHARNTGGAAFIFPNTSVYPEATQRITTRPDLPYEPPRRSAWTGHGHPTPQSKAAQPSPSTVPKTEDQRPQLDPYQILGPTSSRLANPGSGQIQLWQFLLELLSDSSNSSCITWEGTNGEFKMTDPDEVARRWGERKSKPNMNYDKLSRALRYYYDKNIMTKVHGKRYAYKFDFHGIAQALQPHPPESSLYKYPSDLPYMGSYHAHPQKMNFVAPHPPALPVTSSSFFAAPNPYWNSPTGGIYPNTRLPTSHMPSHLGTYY

Kd [1] | Kd [2] | Substance
7.5 µM | – | 3-mer PYL capped at both termini (Ac-PYL-NH2) (peptide)
8.7 µM | – | 3-mer PYL capped at the N-terminus only (Ac-PYL) (peptide)
> 100 µM | > 100 µM | EIP1 capped at both termini (Ac-LPPYLFT-NH2) (peptide)
– | > 100 µM | 7-mer LPPYLFT capped at the C-terminus only (LPPYLFT-NH2) (peptide)
